Measurements reported in patent publication US20200190176A1 (VERITAS THERAPEUTICS, published 2020).
Blank lines part the entries; values can stand above or below the binder they belong to.

What was measured:
recombinant human FGL2 = target: T1, recombinant human FGL2 (human, UniProt Q14314 30-439, limits assumed); test: SPR, Biacore 3000, 25 C, antibody captured by goat anti-mouse Fc, FGL2 as analyte
T1 construct: also called hFGL2; FGL2/fibroleukin
T1 sequence (looked up): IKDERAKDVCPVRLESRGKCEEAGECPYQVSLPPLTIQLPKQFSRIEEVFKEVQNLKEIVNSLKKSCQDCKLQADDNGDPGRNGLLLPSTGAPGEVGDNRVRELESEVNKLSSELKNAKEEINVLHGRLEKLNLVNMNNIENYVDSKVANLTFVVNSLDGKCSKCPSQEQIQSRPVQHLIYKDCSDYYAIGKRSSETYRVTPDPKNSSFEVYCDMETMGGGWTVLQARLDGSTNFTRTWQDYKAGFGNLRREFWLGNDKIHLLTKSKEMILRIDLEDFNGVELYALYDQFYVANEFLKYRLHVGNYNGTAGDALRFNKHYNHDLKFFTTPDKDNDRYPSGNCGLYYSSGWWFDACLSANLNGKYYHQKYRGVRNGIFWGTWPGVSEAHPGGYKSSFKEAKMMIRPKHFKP
Description: (§1) The response difference (Resp. Diff.) for each experiment was plotted against time (s). Resp. Diff. is the ligand-immobilized flow cell minus the control flow cell. A) Human FGL2. For the full kinetic analysis, SPR was performed using 0.625 nM, 2.5 nM, 5 nM, and 10 nM recombinant human FGL2. B) Mouse FGL2. For this analysis, SPR was performed using 10 nM recombinant mouse FGL2.
(§2) Binding experiments were performed on Biacore 3000 at 25° C. Flow cell 2 was coated with 1,000 RU of the goat anti-mouse Fc capture Ab by direct immobilization using EDC/NHS amine coupling method and the unoccupied sites were blocked with 1M ethanolamine. 9D8 or 3H9 was captured at an RU as indicated. Either recombinant human or mouse FGL2 was flowed over the chip and binding to 9D8 or 3H9 was monitored in real time. From the observed kon and koff, KD was determined.

recombinant mouse FGL2 = target: T2, recombinant mouse FGL2 (mouse, UniProt P12804 27-432, limits assumed); test: as above
T2 construct: native mouse FGL2 is said to exist as an oligomer; also called murine recombinant FGL2
T2 sequence (looked up): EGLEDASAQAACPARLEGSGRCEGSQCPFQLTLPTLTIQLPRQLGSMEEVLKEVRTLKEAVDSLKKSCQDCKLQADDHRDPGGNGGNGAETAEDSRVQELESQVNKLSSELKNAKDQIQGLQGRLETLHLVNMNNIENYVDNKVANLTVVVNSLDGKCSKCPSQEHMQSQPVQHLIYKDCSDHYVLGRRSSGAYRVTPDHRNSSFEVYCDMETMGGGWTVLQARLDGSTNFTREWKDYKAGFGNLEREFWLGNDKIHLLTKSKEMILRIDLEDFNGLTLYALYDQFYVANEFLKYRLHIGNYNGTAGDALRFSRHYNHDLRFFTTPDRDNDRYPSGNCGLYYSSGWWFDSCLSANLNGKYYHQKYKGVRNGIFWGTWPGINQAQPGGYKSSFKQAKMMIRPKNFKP
Description: as §1, §2

Kd (recombinant human FGL2): 0.857 nM | koff (recombinant human FGL2): 0.0019 s⁻¹ | kon (recombinant human FGL2): 2.22e+06 M⁻¹ s⁻¹ | Kd (recombinant mouse FGL2): 1.8 nM | koff (recombinant mouse FGL2): 0.00334 s⁻¹ | kon (recombinant mouse FGL2): 1.85e+06 M⁻¹ s⁻¹
B1: anti-FGL2 monoclonal antibody 9D8 (antibody, mouse IgG1, kappa, V domains shown)
VH: EVQLQQSGAELVKPGASVQLSCTASGFNIKDTYIHWVKQRPEQGLEWIGRIDPEDGNTKYDPKFQAKATITADTFSNTAYLQLSSLTSEDTAVYYCARSYGNAYWGQGTLVTVSA
VL: DIVLTQSPASLAVSLGQRATISCRASQSVSTSRYTYMHWYQQKPGQPPKLLIKYASNLDSGVPARFSGSGSGTDFTLNIHPVQEEDTATYYCQHSWEIWAFGGGTKLEIKR
notes: Mouse hybridoma antibody purified from ascites; isotype-matched control was IgG1; here built without leader from variable region plus constant region; also called clone 9D8; antibody to FGL2 (9D8)

Kd (recombinant human FGL2): 0.286 nM | koff (recombinant human FGL2): 0.000884 s⁻¹ | kon (recombinant human FGL2): 3.09e+06 M⁻¹ s⁻¹ | Kd (recombinant mouse FGL2): 0.103 nM | koff (recombinant mouse FGL2): 0.000189 s⁻¹ | kon (recombinant mouse FGL2): 1.84e+06 M⁻¹ s⁻¹
B2: anti-FGL2 monoclonal antibody 3H9 (antibody, mouse IgG2b, kappa, V domains shown)
VH: EVQLQQSGPELVKSGASVKISCKTSGYTFTEYTIHWVKQSHGESLEWVGGINPKNGGISYNQKFKGKATLTVDKSSSTAYMELRSLTSEDSAVYFCARWGIGNYVGFPYWGQGTLVTVSA
VL: SIVMTQTPKFLLVSAGDRVTMTCKASLSVNNDVAWYQQKPGQSPKLLISYASSRYTGVPDRFTGSGYGTDFTFTISSVQAEDLAVYFCQQDYSSPLTFGAGTKLELKR
notes: Mouse hybridoma antibody generated in the same manner as 9D8; here built without leader
